Results as given in patent US10400230B2, “Protease variants and polynucleotides encoding same” (NOVOZYMES A/S, priority 2014, dated 2019).
Positions count from the first letter of the chain named. Numbers in names are those of the source. Where “and” joins values, the source holds several entries; their conditions need not be identical. Identical values can stand only once.

Assay: Determination of binding constants of inhibitor (NNIC) in Model B detergent, Suc-AAPF-pNA read-out
Format: biochemical
Conditions: Ki of variant with the mutation relative to variant without the mutation, <1.0 beneficial
Experimental: Purified protease variants are pre-diluted to approximately 0.2 mg/ml in dilution buffer. 40 μl diluted protease is then mixed with 40 μl inhibitor solution (Z-Gly-Ala-NHCH(CH2C6H4pOH)C(OH)(SO3Na)—H, wherein Z is benzyloxycarbonyl) or 40 μl 4-FPBA solution in the well of a 96 well microtiter plate (Nunc F 96-MTP). […] After 10 min mixing of protease and inhibitor at room temperature, 30 μl of the mixture is transferred to a microtiter plate (Nunc U96 PP 0.5 ml) with 270 μl Model B detergent in the wells resulting in inhibitor concentrations of 0-30 μM and 4-FPBA concentrations of 0-6000 μM. Protease, inhibitor and detergent is mixed for 1 hour using magnetic bars for 1 hour at room temperature to reach equilibrium. Then 20 μl is transferred to a microtiter plate (Nunc F 96-MTP). 100 μl substrate solution is added and after 5 sec mixing absorbance at 405 nm is measured every 20 sec for 5 min on a SpectraMax Plus reader. Slope from linear regression of initial increase in absorbance at 405 nm is used for calculation of apparent binding constants.
It is assumed that protease and inhibitor react according to the equation: E+I ? EI
Where E is the protease, I is the inhibitor and EI is the protease-inhibitor complex. […] The concentration of enzyme-inhibitor in the detergent solution is then given by:
where Etot is the total protease concentration ([Etot]=[E]+[EI]), Itot is the total inhibitor concentration ([Itot]=[I]+[EI]), and Ki is the equilibrium binding constant for the reaction. The measured slopes V are given by:
where V0 is the slope without inhibitor added. To calculate apparent binding constant Ki least square fitting of measured slopes at various inhibitor concentrations to this equation is performed with Ki and V0 as variables.
The Ki for the parent protease and for each variant was calculated as described above
Having the Ki for each variant, it is possible to calculate the effect of a single mutation, if data are available for at least two variants that differ only by that mutation. In this case, the relative Ki for the mutation is calculated:
[formula] A lower Ki is desirable, as a satisfactory inhibition can be obtained at a lower inhibitor concentration, so beneficial mutations have a relative Ki<1.0 The following table show such relative Kimutation. Each row show: • a mutation (column 1: “Mutation”) • a protease variant (relative to SEQ ID NO: 2) that comprise the mutation from column 1 (column 2: “Variant with the mutation”) • another protease variant (relative to SEQ ID NO: 2), that differs from the one in column 2 only by not having the mutation in column 1 (column 3: “Variant without the mutation”) • Relative Kimutation for the mutation in column 1, in the context of the variant in column 3, measured in Model B detergent (column 4: “inhibitor binding in Model B”) • Relative Kimutation for the mutation in column 1, in the context of the variant in column 3, measured in Tris buffer at pH 8 (column 5: “inhibitor binding in Tris buffer pH 8”)
Ki were calculated as shown in Example 3. The Improvement Factor (IF) or Relative

B1: S27K, I150N, S171N, S173P, G174R, S175P, F180Y, Q198, ET297P: TY145 protease (SEQ ID NO 3) variant with these substitutions (protein, listed as Bacillus sp.)
chain: AVPSTQTPWGIKSIYNDQSITKTTGGKGIKVAVLDTGVYTSHLDLAGSAEQCKDFTQSNPLVDGSCTDRQGHGTHVAGTVLAHGGSNGQGVYGVAPQAKLWAYKVLGDNGSGYSDDIAAAIRHVADEASRTGSKVVINMSLGSSAKDSLNASAVDYAYGKGVLIVAAAGNNGPRPNTIGYPGGLVNAVAVAALENVQENGTYRVADFSSRGNPATAGDYIIQERDIEVSAPGASVESTWYTGGYNTISGTSMATPHVAGLAAKIWSANTSLSHSQLRTELQNRAKVYDIKGGIGAGPGDDYASGFGYPRVK
For B1, the “Inhibitor-binding relative Kimutation, inhibitor binding in Model B” value (from here on “Inhibitor-binding relative Kimutation”) was 0.24.

B2: S173P, S175P, I178F, F180Y: TY145 protease (SEQ ID NO 3) variant with these substitutions (protein, listed as Bacillus sp.)
chain: B1 chain with K27S, N150I, N171S, R174G, I178F, E198Q, P297T
In the case of B2, the “Inhibitor-binding relative Kimutation” value is reported as 0.50 and 0.49.

B3: S27K, K146P, S148R, A151R, S171N, S173P, G174R, S175P, F180Y, Q198E, N199K, T297P: TY145 protease (SEQ ID NO 3) variant with these substitutions (protein, listed as Bacillus sp.)
chain: B1 chain with K146P, S148R, N150I, A151R, N199K
In the case of B3, the “Inhibitor-binding relative Kimutation” value is reported as 0.75.

B4: S27K, I121V, S171N, S173P, G174R, S175P, F180Y, L184F, Q198E, T297P: TY145 protease (SEQ ID NO 3) variant with these substitutions (protein, listed as Bacillus sp.)
chain: B1 chain with I121V, N150I, L184F
In the case of B4, the “Inhibitor-binding relative Kimutation” value is reported as 0.30.

B5: S27K, S173P, G174K, S175P, F180Y, L184Y, Q198E, N199K, T297P: TY145 protease (SEQ ID NO 3) variant with these substitutions (protein, listed as Bacillus sp.)
chain: B1 chain with N150I, N171S, R174K, L184Y, N199K
In the case of B5, the “Inhibitor-binding relative Kimutation” value is reported as 0.21.

B6: S27K, S171N, S173P, G174R, S175P, F180Y, L184W, Q198E, T297P: TY145 protease (SEQ ID NO 3) variant with these substitutions (protein, listed as Bacillus sp.)
chain: B1 chain with N150I, L184W
With B6 the “Inhibitor-binding relative Kimutation” value was 0.57.

B7: S173P, S175P, I178P, F180Y: TY145 protease (SEQ ID NO 3) variant with these substitutions (protein, listed as Bacillus sp.)
chain: B1 chain with K27S, N150I, N171S, R174G, I178P, E198Q, P297T
With B7 the “Inhibitor-binding relative Kimutation” value was 0.51.

B8: S173P, S175P, F180Y, L184D: TY145 protease (SEQ ID NO 3) variant with these substitutions (protein, listed as Bacillus sp.)
chain: B1 chain with K27S, N150I, N171S, R174G, L184D, E198Q, P297T
In the case of B8, the “Inhibitor-binding relative Kimutation” value is reported as 0.37.

B9: S27K, Q70N, G107N, I121V, E127Q, S173P, S175P, F180Y, L184F, Q198E, T297P: TY145 protease (SEQ ID NO 3) variant with these substitutions (protein, listed as Bacillus sp.)
chain: B1 chain with Q70N, G107N, I121V, E127Q, N150I, N171S, R174G, L184F
With B9 the “Inhibitor-binding relative Kimutation” value was 0.37.

B10: S173P, S175P, F180Y, L184F: TY145 protease (SEQ ID NO 3) variant with these substitutions (protein, listed as Bacillus sp.)
chain: B1 chain with K27S, N150I, N171S, R174G, L184F, E198Q, P297T
For B10, the “Inhibitor-binding relative Kimutation” value was 0.31 and 0.27.

B11: S27K, S173P, G174K, S175P, F180Y, L184F, Q198E, N199R, T297P: TY145 protease (SEQ ID NO 3) variant with these substitutions (protein, listed as Bacillus sp.)
chain: B1 chain with N150I, N171S, R174K, L184F, N199R
With B11 the “Inhibitor-binding relative Kimutation” value was 0.22.

B12: S173P, S175P, N176Y, F180Y: TY145 protease (SEQ ID NO 3) variant with these substitutions (protein, listed as Bacillus sp.)
chain: B1 chain with K27S, N150I, N171S, R174G, N176Y, E198Q, P297T
In the case of B12, the “Inhibitor-binding relative Kimutation” value is reported as 0.81.

B13: S173P, S175P, F180Y, L184W: TY145 protease (SEQ ID NO 3) variant with these substitutions (protein, listed as Bacillus sp.)
chain: B1 chain with K27S, N150I, N171S, R174G, L184W, E198Q, P297T
With B13 the “Inhibitor-binding relative Kimutation” value was 0.50.

B14: S27K, S171N, S173P, G174R, S175P, F180Y, L184Y, Q198E, T297P: TY145 protease (SEQ ID NO 3) variant with these substitutions (protein, listed as Bacillus sp.)
chain: B1 chain with N150I, L184Y
For B14, the “Inhibitor-binding relative Kimutation” value was 0.18.

B15: S27K, S173P, G174K, S175P, F180Y, L184Y, Q197K, Q198E, T297P: TY145 protease (SEQ ID NO 3) variant with these substitutions (protein, listed as Bacillus sp.)
chain: B1 chain with N150I, N171S, R174K, L184Y, Q197K
With B15 the “Inhibitor-binding relative Kimutation” value was 0.32.

B16: S27K, S173P, G174K, S175P, F180Y, L184F, Q198E, N199K, T297P: TY145 protease (SEQ ID NO 3) variant with these substitutions (protein, listed as Bacillus sp.)
chain: B1 chain with N150I, N171S, R174K, L184F, N199K
With B16 the “Inhibitor-binding relative Kimutation” value was 0.36.

B17: S173P, S175P, F180Y, L184Y: TY145 protease (SEQ ID NO 3) variant with these substitutions (protein, listed as Bacillus sp.)
chain: B1 chain with K27S, N150I, N171S, R174G, L184Y, E198Q, P297T
For B17, the “Inhibitor-binding relative Kimutation” value was 0.24.

B18: S27K, S171N, S173P, G174R, S175P, F180Y, L184F, Q198E, T297P: TY145 protease (SEQ ID NO 3) variant with these substitutions (protein, listed as Bacillus sp.)
chain: B1 chain with N150I, L184F
For B18, the “Inhibitor-binding relative Kimutation” value was 0.18.

B19: S173P, S175P, I178Y, F180Y: TY145 protease (SEQ ID NO 3) variant with these substitutions (protein, listed as Bacillus sp.)
chain: B1 chain with K27S, N150I, N171S, R174G, I178Y, E198Q, P297T
In the case of B19, the “Inhibitor-binding relative Kimutation” value is reported as 0.53.
